Earlier results as cited in article PMC2662774.
pKd: −log10 of the molar value.

Columns and labels:
[1] = molecular target: CXCR4 sY21 P38 peptide 1-38 (Homo sapiens) (UniProt P61073); assay: NMR titration
[2] = molecular target: CXCR4 1-38 (sY21 P38) 1-38 (Homo sapiens) (UniProt P61073); assay: NMR

Chain of SDF-1α (P48061 24-88): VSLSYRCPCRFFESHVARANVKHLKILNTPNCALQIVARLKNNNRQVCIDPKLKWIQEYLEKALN

SDF-1α (from UniProt P48061)
pKd [1]: 5.89
pKd [2]: 5.89
